Legend:
Format in all cases: cell-based, human
[1] = tested on: Me1624.38 tumor cell line (HLA-A*02 positive, NY-ESO-1/LAGE-1 positive); test: Killing of tumor cells, Annexin V live-cell imaging (IncuCyte ZOOM); conditions: TCR-transduced CD8+ T cells, effector-to-target about 4:1
Protocol: (§1) The killing capacity of T11.8-10-17- or benchmark-TCR-transduced CD8^+ T cells (CD8-T11.8-10-17 or CD8 benchmark-TCR) was evaluated by co-culturing with the HLA-A*02 positive NY-ESO-1/LAGE-1 positive tumor cell line Me1624.38 (FIG. 2a). In addition, killing of CD8-T11.8-10-17 was also tested with the HLA-A*02 positive NY-ESO-1/LAGE-1 positive tumor cell line MM415 (FIG. 2b). As a negative control, untransduced CD8^+ enriched PBMC were used as effector cells (CD8 UT) or the HLA-A*02 positive but NY-ESO-1/LAGE-1 negative tumor cell line SK-Me123 was used as target cells. The co-cultures were set-up at an effector-to-target ratio of about 4:1, i.e. 10,000 adherent tumor cells were seeded one day prior to the co-culture and subsequently 40,000 transgenic TCR^+ T cells were added. An increase of red fluorescent target cells (Total Integrated Intensity in GCU×μm^2/Image) that indicates induction of apoptosis of target cells (Annexin V, red), was measured every four hours over a total time period of 67 hours using live-cell monitoring (IncuCyte® ZOOM).

[2] = tested on: MM415 tumor cell line (HLA-A*02 positive, NY-ESO-1/LAGE-1 positive); test: as above; conditions: TCR-transduced CD8+ T cells, effector-to-target about 4:1
Protocol: as §1

[3] = tested on: SK-Me123 tumor cell line (HLA-A*02 positive, NY-ESO-1/LAGE-1 negative); test: as above; conditions: antigen-negative target line; effector-to-target about 4:1; 67 hours
Protocol: as §1

[4] = tested on: peptide-loaded T2 cells; test: IFN-γ ELISA, peptide-loaded T2 controls of the tumor cell line panel
Description: (§2) IFN-γ ELISA was used to assess cytokine secretion upon stimulation of T11.8-10-17-transduced T cells (CD8_T11.8-10-17) with a panel of HLA-A*02:01 positive, NY-ESO-1/LAGE-1 positive human tumor cell lines (Me1624.38, FM6, FM3.29, MM415, SAOS2, U266). NY-ESO-1/LAGE-1 expression in the target cells was detected by NanoString nCounter® analysis. As positive control for T11.8-10-17-transduced T cells, T2 cells were loaded with SLL-peptide (10^−5 M). As negative controls for the effector function, T11.8-10-17-transduced T cells were co-cultured with T2 cells loaded with irrelevant (FTV) peptide (10^−5M), SK-Me123 (HLA-A2pos, NY-ESO-1/LAGE-1neg) or SKM1 (HLA-A2pos, NY-ESO-1/LAGE-1neg), or untransduced T cells were co-cultured with tumor cells or peptide-loaded T2 cells. Cultivation of target cells without effector cells served as an additional negative control. Target cells were co-cultured with T cells at a ratio of 2:1 using 40,000 T11.8-10-17-transduced T cells and 20,000 target cells. (FIG. 3).

[5] = tested on: Me1624.38; test: IFN-γ ELISA, stimulation by tumor cell lines; conditions: transduced CD8+ T cells 40,000, target cells 20,000
Description: as §2

[6] = tested on: FM3.29; test: IFN-γ ELISA, stimulation by tumor cell lines; conditions: transduced CD8+ T cells 40,000, target cells 20,000
Description: as §2

[7] = tested on: U266; test: IFN-γ ELISA, stimulation by tumor cell lines; conditions: transduced CD8+ T cells 40,000, target cells 20,000
Description: as §2

[8] = tested on: FM6; test: IFN-γ ELISA, stimulation by tumor cell lines; conditions: transduced CD8+ T cells 40,000, target cells 20,000
Description: as §2

[9] = tested on: SKM1 (HLA-A2pos, NY-ESO-1/LAGE-1neg); test: IFN-γ ELISA, stimulation by tumor cell lines; conditions: antigen-negative line; transduced CD8+ T cells 40,000, target cells 20,000
Description: as §2

[10] = tested on: SAOS2; test: IFN-γ ELISA, stimulation by tumor cell lines; conditions: transduced CD8+ T cells 40,000, target cells 20,000
Description: as §2

[11] = tested on: SK-Me123 (HLA-A2pos, NY-ESO-1/LAGE-1neg); test: IFN-γ ELISA, stimulation by tumor cell lines; conditions: antigen-negative line; transduced CD8+ T cells 40,000, target cells 20,000
Description: as §2

[12] = tested on: MM415; test: IFN-γ ELISA, stimulation by tumor cell lines; conditions: transduced CD8+ T cells 40,000, target cells 20,000
Description: as §2

[13] = tested on: peptide-loaded T2 cells; test: Recognition of mismatched epitopes: IFN-γ ELISA with peptide-loaded T2 cells; conditions: ratio 1:1
Protocol: As a negative control, untransduced CD8^+ enriched PBMC (CD8_UT) were used as effector cells or TCR-transgenic T cells were stimulated with irrelevant (irr.; […]) peptide-loaded T2 cells (10^−5 M). Background IFN-γ secretion of target cells was also tested (targets only). As a positive control T cells were activated by SLL peptide (#10*)-loaded T2 cells (10^−5 M). […] IFN-γ secretion was measured by standard ELISA in [pg/mL].

[14] = tested on: HLA-A*02:01-transgenic K562 cells; test: Recognition of ivtRNA mismatched epitopes: IFN-γ ELISA with HLA-A*02:01-transgenic K562 cells; conditions: 16 hours
Protocol: For this experiment, 3×10^6 K562 cells in 300 μl RPMI1640 medium were electroporated with 20 μg either NY-ESO-1 or eGFP-ivtRNA (300 Volt and 300 μF; exponential pulse). As positive control, T cells were stimulated with HLA-A*02:01-transgenic K562 cells loaded with either the SLL-peptide (10^−5M) (K562-A2+SLL) or with 20 μg ivtRNA encoding NY-ESO-1 (K562-A2+NY-ESO-1). As a negative control HLA-A*02:01-transgenic K562 were either loaded with irrelevant peptide (10^−5M; K562-A2+FTV) or with 20 μg ivtRNA encoding eGFP (K562-A2+eGFP).

[15] = tested on: T2 cells loaded with NY-ESO-1/LAGE-1157-165 (SLL) peptide (T2(SLL)); test: Secretion of MIP-1α and MIP-1β, multiplex assay (Milliplex MAP Kit); conditions: T2(SLL) 10^−5 M; ratio 1:1, 10 000 cells each; 18 hours; two donors; compared with the other TCR
Protocol: As negative control, T11.8-10-17- or benchmark-transgenic CD8^+ T cells were stimulated with HLA-A*02:01 positive FTV-loaded T2 cells or untransduced CD8^+ enriched PBMC (CD8_ut) were co-cultured with peptide-loaded T2 cells. Furthermore, T2 cells or T cells were cultured separately.
Target cells and T cells were co-cultured at a ratio of 1:1 using 10 000 target cells and 10 000 T11.8-10-17- or benchmark-TCR-transduced T cells. Secretion of MIP-1α and MIP-1β by either T11.8-10-17- or benchmark-transgenic CD8^+ T cells was determined 18 hours after setting up the co-culture by multiplex assay using the Milliplex MAP Kit and analyzed by the MagPix analyzer.

B1: T11.8-10-17: TCR of T cell clone T11.8-10-17 specific for NY-ESO-1/LAGE-1157-165 on HLA-A*02:01; variable α SEQ ID NO: 10, variable β SEQ ID NO: 11 (protein, listed as Homo sapiens)
alpha: MKSLRVLLVILWLQLSWVWSQQKEVEQNSGPLSVPEGAIASLNCTYSDRGSQSFFWYRQYSGKSPELIMFIYSNGDKEDGRFTAQLNKASQYVSLLIRDSQPSDSATYLCAADDKIIFGKGTRLHILPN
beta: MGSWTLCCVSLCILVAKHTDAGVIQSPRHEVTEMGQEVTLRCKPISGHDYLFWYRQTMMRGLELLIYFNNNVPIDDSGMPEDRFSAKMPNASFSTLKIQPSEPRDSAVYFCASSRGGSGYTFGSGTRLTVVE
- start of increase of red fluorescence (killing) [1]: 10 h
- killing of target cells (increase of red fluorescence, Annexin V) ([1]; 67 hours): showed killing
- start of increase of red fluorescence (killing) [2]: 10 h
- killing of target cells (increase of red fluorescence, Annexin V) ([2]; 67 hours): showed killing
- killing of target cells (increase of red fluorescence, Annexin V) [3]: no increase of red fluorescence was observed
- IFN-γ secretion ([4]; T2 cells loaded with SLL-peptide (10^−5 M)): high amounts of IFN-γ secretion
- recognition (IFN-γ secretion) ([4]; T2 cells loaded with irrelevant (FTV) peptide (10^−5 M)): no recognition
- IFN-γ secretion [5]: high amounts of IFN-γ secretion
- IFN-γ secretion [6]: high amounts of IFN-γ secretion
- IFN-γ secretion [7]: high amounts of IFN-γ secretion
- IFN-γ secretion [8]: high amounts of IFN-γ secretion
- recognition (IFN-γ secretion) [9]: no recognition
- IFN-γ secretion [10]: high amounts of IFN-γ secretion
- recognition (IFN-γ secretion) [11]: no recognition
- IFN-γ secretion [12]: high amounts of IFN-γ secretion
- peptide recognition (IFN-γ secretion) ([13]; T2 + irrelevant peptide (FTVSGNILTI) 10^−5 M): not the irrelevant peptide
- cross-recognition (IFN-γ secretion) ([13]; T2 + peptide #3 10^−5 M): cross-recognized
- cross-recognition (IFN-γ secretion) ([13]; T2 + peptide #6 10^−5 M): slightly activated
- cross-recognition (IFN-γ secretion) ([13]; T2 + peptide #11 10^−5 M): slightly activated
- cross-recognition (IFN-γ secretion) ([13]; T2 + peptide #32 10^−5 M): slightly activated
- cross-recognition (IFN-γ secretion) ([13]; T2 + peptide #34 10^−5 M): slightly activated
- cross-recognition (IFN-γ secretion) ([13]; T2 + peptide #51 10^−5 M): slightly activated
- peptide recognition (IFN-γ secretion) ([13]; T2 + positive control peptide SLL (SLLMWITQC) 10^−5 M): recognized
- cross-recognition of internally processed peptide (IFN-γ release) ([14]; K562-A2+#3, ivtRNA long peptide): no cross-recognition
- cross-recognition of internally processed peptide (IFN-γ release) ([14]; K562-A2+#6, ivtRNA long peptide): no cross-recognition
- cross-recognition of internally processed peptide (IFN-γ release) ([14]; K562-A2+#11, ivtRNA long peptide): no cross-recognition
- cross-recognition of internally processed peptide (IFN-γ release) ([14]; K562-A2+#32, ivtRNA long peptide): no cross-recognition
- cross-recognition of internally processed peptide (IFN-γ release) ([14]; K562-A2+#34, ivtRNA long peptide): no cross-recognition
- cross-recognition of internally processed peptide (IFN-γ release) ([14]; K562-A2+#51, ivtRNA long peptide): no cross-recognition
- recognition (IFN-γ release) ([14]; K562-A2+NYESO, NY-ESO-1-ivtRNA transfected): recognized
- recognition (IFN-γ release) ([14]; K562-A2+SLL, peptide-loaded 10^−5 M, target:T cell 2:1): recognized
- recognition (IFN-γ release) ([14]; K562-A2+eGFP ivtRNA): did not recognize
- recognition (IFN-γ release) ([14]; K562-A2+irr., irrelevant peptide 10^−5 M): did not recognize
- MIP-1α secretion [15]: markedly lower amounts
- MIP-1β secretion [15]: markedly lower amounts
